Measured values taken from US20100297683A1 (QUEEN MARY AND WESTFIELD COLLEGE, published 2010).
Ends that are not written are not given here.

Legend:
[1] = test system: T1, AAPFFK cross-linked dextran hydrogel
T1 sequence: AAPFFK

[2] = test system: T2, AAPVAAK cross-linked dextran hydrogel
T2 sequence: AAPVAAK

BSA = target: T3, BSA (UniProt P02769 25-607); assay: QCM admittance (mass, delta XL) on peptide hydrogel film
T3 construct: Control protein added instead of HNE

[3] = target: T4, AAPFFK cross-linked dextran hydrogel
T4 chain: AAPFFK

[4] = target: T5, AAPVAAK cross-linked dextran hydrogel (not fully specified)
T5 chain: AAPVAAK

[5] = target: T6, Ala-Ala-Pro-Val-Ala-Ala-Lys-NH2 (AAPVAAK) peptide cross-linker in acrylamide hydrogel film (not fully specified)
T6 chain: AAPVAAK

T3 sequence (P02769 25-607 limits assumed): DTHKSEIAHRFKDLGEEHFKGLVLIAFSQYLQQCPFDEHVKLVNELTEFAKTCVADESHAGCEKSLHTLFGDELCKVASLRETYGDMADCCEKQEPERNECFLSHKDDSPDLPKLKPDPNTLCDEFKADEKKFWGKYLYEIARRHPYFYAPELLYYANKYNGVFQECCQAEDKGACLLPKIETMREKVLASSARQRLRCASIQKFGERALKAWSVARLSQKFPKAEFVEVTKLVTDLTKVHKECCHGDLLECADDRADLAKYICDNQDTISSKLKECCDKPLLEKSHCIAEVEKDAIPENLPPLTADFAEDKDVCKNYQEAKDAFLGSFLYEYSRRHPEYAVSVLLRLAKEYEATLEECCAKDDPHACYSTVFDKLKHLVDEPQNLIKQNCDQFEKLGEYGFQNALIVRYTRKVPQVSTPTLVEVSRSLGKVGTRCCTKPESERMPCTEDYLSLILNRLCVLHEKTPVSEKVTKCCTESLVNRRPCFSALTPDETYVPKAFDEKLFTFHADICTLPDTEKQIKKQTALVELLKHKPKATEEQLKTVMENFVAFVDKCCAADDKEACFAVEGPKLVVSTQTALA

With cathepsin G the “degradation of hydrogel film monitored by QCM resonant frequency, 100 mU/ml cathepsin G” value [1] was “Cathepsin G caused the films to degrade resulting in an increase in resonant frequency” and the “degradation of hydrogel film monitored by QCM, 100 mU cathepsin G” value [2] was “slow degradation was observed, indicating some minor cross-sensitivity”.

B1: Ala-Ala-Pro-Val-Ala-Ala-Lys-NH2 (AAPVAAK) peptide cross-linker in acrylamide hydrogel film (peptide)
peptide: AAPVAAK-NH2
modifications: not fully specified (N-terminus); printed as Ala-Ala-Pro-Val-Ala-Ala-Lys-NH2; also: both ends capped with acryloyl group, copolymerised with acrylamide into hydrogel film
B1: no binding (BSA).

B2: Human Neutrophil Elastase (protein)
chain: IVGGRRARPHAWPFMVSLQLRGGHFCGATLIAPNFVMSAAHCVANVNVRAVRVVLGAHNLSRREPTRQVFAVQRIFENGYDPVNLLNDIVILQLNGSATINANVQVAQLPAQGRRLGNGVQCLAMGWGLLGRNRGIASVLQELNVTVVTSLCRRSNVCTLVRGRQAGVCFGDSGSPLVCNGLIHGIASFVRGGCASGLYPDAFAPVAQFVNWIDSIIQ
With B2 the “degradation of hydrogel film monitored by QCM, 10 U/ml HNE” value [3] was “There was no noticeable degradation of the hydrogel when HNE was introduced”, the “degradation of hydrogel film monitored by QCM resonance frequency (25% cross-linked film)” value [4] was “After 10 min of enzyme exposure, the film was completely degraded” and the “degradation of hydrogel film monitored by QCM resonance frequency (50% cross-linked, reduced film)” value [4] was “the rate of degradation increased when the HNE concentration was increased”. For the same molecule, the “change of QCM parameter delta XL (mass of the hydrogel film) after addition of HNE” value [5] was “The gradual decrease in mass was due to the breakage of peptide bonds and the subsequent dissolution of the film resulting in mass loss from the surface of the crystal” and the “change of QCM resistive component delta R after addition of HNE” value [5] was “The gradual decrease was caused by the cleavage of peptide bonds and subsequent dissolution of the hydrogel by the action of the enzyme human neutrophil elastase”.
